T1: rat VEGFR1 (soluble antigen of the KinExA and SPR affinity assays) (rat, UniProt P53767 23-758, limits assumed)
T1 sequence (looked up): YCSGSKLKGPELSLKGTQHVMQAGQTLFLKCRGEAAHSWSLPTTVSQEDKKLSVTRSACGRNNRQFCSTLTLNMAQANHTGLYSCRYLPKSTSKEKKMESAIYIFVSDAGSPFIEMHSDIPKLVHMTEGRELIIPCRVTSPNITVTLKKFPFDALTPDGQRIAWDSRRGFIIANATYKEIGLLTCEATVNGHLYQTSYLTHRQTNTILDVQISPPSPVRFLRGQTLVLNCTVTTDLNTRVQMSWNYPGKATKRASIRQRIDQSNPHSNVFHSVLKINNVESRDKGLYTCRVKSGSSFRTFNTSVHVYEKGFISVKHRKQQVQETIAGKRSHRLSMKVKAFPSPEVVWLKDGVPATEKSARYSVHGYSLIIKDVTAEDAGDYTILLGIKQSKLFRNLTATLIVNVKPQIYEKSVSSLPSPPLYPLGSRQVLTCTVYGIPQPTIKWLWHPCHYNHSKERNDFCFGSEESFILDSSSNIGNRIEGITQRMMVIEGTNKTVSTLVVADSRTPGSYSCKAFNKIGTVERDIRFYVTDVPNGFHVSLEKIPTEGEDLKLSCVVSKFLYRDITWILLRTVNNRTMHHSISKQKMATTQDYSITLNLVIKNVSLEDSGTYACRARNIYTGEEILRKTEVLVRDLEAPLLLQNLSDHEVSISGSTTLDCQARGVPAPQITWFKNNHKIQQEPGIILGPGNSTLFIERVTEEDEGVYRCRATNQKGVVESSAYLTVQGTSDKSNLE

T2: murine VEGFR1, over-expressed on cells (mouse, UniProt P35969 23-1333)
T2 construct: whole, on cells; also called mouse VEGFR1
T2 sequence (looked up): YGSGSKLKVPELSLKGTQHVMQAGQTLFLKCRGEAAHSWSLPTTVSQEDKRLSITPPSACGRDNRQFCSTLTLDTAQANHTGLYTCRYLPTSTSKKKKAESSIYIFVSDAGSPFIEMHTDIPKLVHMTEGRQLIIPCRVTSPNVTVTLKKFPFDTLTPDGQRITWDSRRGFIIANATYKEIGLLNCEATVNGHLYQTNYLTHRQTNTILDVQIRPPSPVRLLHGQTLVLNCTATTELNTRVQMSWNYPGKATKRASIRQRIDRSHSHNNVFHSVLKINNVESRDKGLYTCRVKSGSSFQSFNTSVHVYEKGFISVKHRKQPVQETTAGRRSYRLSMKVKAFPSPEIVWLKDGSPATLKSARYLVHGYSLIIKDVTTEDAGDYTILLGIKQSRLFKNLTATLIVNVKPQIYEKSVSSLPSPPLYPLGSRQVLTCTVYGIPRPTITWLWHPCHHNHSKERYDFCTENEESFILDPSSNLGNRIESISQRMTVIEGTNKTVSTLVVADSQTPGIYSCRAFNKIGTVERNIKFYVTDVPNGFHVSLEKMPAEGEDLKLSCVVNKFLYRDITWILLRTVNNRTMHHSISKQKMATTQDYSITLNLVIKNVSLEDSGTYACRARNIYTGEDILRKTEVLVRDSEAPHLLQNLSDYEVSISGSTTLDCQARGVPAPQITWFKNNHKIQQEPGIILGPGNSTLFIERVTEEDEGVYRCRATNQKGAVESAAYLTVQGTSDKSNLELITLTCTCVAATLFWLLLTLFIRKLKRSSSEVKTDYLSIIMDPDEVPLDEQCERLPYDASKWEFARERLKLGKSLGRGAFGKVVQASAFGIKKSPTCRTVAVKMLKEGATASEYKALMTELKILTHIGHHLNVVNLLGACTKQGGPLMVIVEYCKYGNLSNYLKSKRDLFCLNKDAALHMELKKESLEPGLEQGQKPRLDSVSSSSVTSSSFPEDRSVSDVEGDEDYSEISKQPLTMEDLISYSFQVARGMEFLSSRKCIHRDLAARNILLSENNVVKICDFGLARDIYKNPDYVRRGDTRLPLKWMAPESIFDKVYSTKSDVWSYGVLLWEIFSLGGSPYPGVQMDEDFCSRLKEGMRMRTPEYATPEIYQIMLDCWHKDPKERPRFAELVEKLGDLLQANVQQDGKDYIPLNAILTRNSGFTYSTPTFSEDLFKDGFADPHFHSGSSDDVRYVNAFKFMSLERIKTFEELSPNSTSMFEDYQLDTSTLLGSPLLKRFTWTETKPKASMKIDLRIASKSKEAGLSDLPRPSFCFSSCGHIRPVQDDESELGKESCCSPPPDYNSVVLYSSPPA


What was measured:
[1] = biological target: T1, rat VEGFR1 (soluble antigen of the …); experiment: KinExA, solution
Outline: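 Solution-phase KinExA: fixed antibody (300, 60, 12, 2.4 or 0.5 pM) titrated with antigen (2 nM to 0.52 pM, or 800 pM to 5.37 fM), equilibrated at RT for at least 2 days; free antibody measured on bead column with fluorescent detection. KD from global n-curve fit to 1:1 model.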

[2] = biological target: T2, murine VEGFR1, over-expressed on cells; experiment: FACS cell binding (MFI) on HEK cells over-expressing murine VEGFR1; expanded clone supernatant per paragraph 492, concentration not given
Outline: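 Flow cytometry was used to measure binding of culture supernatants to HEK cells over-expressing mouse VEGFR1 or human VEGFR2 and to K562 cells over-expressing human VEGFR3. The supernatants came from chicken-derived clones expressed as scFv-Fc (human IgG1) by transient transfection and expanded to 6-well plates (2 mL). Binding is reported as mean fluorescence intensity.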

[3] = biological target: T3, human VEGFR2, over-expressed on HEK293 cells (human, UniProt P35968 20-1356); experiment: flow cytometry, single concentration (Table 21)
T3 construct: whole, on cells; also called huVEGFR2; hVEGFR2
T3 sequence (P35968 20-1356): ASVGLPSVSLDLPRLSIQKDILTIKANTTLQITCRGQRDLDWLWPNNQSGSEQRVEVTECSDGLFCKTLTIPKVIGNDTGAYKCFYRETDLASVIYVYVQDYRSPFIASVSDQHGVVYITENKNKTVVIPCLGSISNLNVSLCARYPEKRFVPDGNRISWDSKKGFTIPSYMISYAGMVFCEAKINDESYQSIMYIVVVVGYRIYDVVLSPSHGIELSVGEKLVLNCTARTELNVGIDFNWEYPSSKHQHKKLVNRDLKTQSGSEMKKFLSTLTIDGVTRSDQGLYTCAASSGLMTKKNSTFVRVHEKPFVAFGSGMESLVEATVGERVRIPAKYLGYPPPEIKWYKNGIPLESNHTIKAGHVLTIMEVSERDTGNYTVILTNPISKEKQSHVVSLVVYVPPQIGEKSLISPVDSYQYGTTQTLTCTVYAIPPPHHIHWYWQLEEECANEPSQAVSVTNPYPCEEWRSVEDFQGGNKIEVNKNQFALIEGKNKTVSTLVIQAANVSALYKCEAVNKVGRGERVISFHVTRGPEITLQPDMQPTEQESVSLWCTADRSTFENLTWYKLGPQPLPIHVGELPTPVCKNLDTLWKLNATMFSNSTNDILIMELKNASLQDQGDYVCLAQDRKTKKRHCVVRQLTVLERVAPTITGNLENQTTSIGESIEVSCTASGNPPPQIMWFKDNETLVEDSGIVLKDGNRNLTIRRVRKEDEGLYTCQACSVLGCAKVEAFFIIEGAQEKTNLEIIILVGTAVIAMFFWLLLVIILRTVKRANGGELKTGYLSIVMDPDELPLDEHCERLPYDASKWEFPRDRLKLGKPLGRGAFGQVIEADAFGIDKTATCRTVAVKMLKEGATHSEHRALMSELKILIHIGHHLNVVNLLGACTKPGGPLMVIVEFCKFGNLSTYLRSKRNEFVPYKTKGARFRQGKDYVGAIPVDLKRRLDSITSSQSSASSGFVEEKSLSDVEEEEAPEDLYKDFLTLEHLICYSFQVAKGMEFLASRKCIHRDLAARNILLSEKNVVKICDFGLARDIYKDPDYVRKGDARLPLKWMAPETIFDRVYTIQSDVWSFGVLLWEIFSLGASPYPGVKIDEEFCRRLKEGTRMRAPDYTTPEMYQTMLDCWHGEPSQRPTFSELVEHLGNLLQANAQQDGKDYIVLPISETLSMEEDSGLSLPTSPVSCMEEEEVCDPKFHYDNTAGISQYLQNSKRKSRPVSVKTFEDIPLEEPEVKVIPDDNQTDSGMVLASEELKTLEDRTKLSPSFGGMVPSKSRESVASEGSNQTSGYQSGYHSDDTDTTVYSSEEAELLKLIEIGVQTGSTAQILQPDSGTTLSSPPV

Row | Binder | Kd [1] | binding result [2] | binding result [3]
1 | VGFB82 (antibody, human IgG1, lambda, L234A L235A, V domains shown, human IgG1 (L234A/L235A/D265S)) VH: EVQLLESGGGLVQPGGSLRLSCEASGFDFSTYAMNWVRQAPGKGLEWVATINSEGTITSHAPAVKGRFTISRDNSKNTAYVQMNSLRAEDSAVYYCSSTTGTTHGMDVWGRGTTVTVSS VL: not shown | 0.224 nM | – | –
2 | VGFB71 (antibody, human IgG1, lambda, L234A L235A, V domains shown, human IgG1 (L234A/L235A/D265S)) VH: EVQLLESGGGLVQPGGSLRLSCEASGFIFRDYNMNWVRQAPGKGLEWVSIITNDGSSTAYSDSVKGRFTISRDNSKNSLYLQMNSLRAEDTAIYYCVKVYYGMDDWGQGTTVTVSS VL: not shown | – | binds | no binding (tested: 10 nM)

Source: US20240425603A1 (Janssen / Centocor, published 2024)
